For assay [1], the target named is T1, cotton leafroll dwarf virus (CLRDV) N-terminal readthrough domain (^NRTD), purified soluble construct (cotton leafroll dwarf virus (CLRDV), …).
T1 construct: Expressed in E. coli; Calculated MW 26.410 kDa; also called CLRDV ^NRTD; CLRDV ^NRTD (TX)
T1 chain: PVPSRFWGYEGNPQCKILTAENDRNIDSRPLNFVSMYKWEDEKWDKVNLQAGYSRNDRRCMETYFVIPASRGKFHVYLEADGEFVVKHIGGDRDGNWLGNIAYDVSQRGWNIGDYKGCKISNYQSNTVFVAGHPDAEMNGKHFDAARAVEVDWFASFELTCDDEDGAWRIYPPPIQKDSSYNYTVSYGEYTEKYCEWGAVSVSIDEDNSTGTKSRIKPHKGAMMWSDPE
The assay can be described thus: phage display panning and screening (legend of FIG. 3). How it is done: (§1) Isolation and screening for specific single-chain antibodies was carried out as detailed by K. M. Chow, et al. (2019, “Immunization of Alpacas (Lama pacos) with Protein Antigens and Production of Antigen-specific Single Domain Antibodies,” J. Vis. Exp. (143), e58471. doi: 10.3791/58471). Briefly, alpacas were immunized with ˜400 μg of a mixture of both TX and AL CP or ^NRTD preparations that contained 50% (v/v) of adjuvant. Five subsequent weekly boosting injections were provided using ˜200 μg of the same mixture detailed above. Three to five days after the last injection, 50 mL of blood was collected, and lymphocytes purified. A cDNA library was prepared using oligodT primers and RNA extracted from lymphocytes. A bacteriophage library was obtained from the cDNA library by cloning with restriction enzymes into the phage display vector pMES4. Expression of the insert fused to gene III of the filamentous phage was used for production of the phage solution and single-domain antibody panning. After screening, two single-chain antibodies that recognized the CRLDV CP were identified and named B6 (SEQ ID NO: 8) and E3 (SEQ ID NO: 4) and three single-chain antibodies that recognized the CRLDV ^NRTD were identified and names C12 (SEQ ID NO: 12), A12 (SEQ ID NO: 16), and D12 (SEQ ID NO: 20), respectively.

The target in assay [2] is T1, cotton leafroll dwarf virus (CLRDV) …. Description: phage display panning and screening. How it is done: as §1

The text below walks through data of patent US20250257122A1 (UNITED STATES OF AMERICA AS REPRESENTED BY THE SECRETARY OF …, published 2025).

Numbering of substitutions follows the chain as printed.

B1: D12 camelid single-chain antibody (VHH)
VHH: QVQLQESGGGLVQAGDSLRLSCAASGRTFNSFAMGWFRQAPGKEREFVAAIKWNGVTTDYADSMKGRFTISRDNAKNTMYLQMNTLKPEDTAIYYCAAKPTWATTNGRPTAYDYWGQGTQVTVSS
notes: Alpaca VHH, cloned into pMES4 and expressed in E. coli; also called D12 single-chain antibody
With B1, the binding result in assay [1] was “binds”.

B2: C12 camelid single-chain antibody (VHH)
VHH: B1 VHH with V12A, K65R, L81M
notes: Alpaca VHH, cloned into pMES4 and expressed in E. coli; also called C12 single-chain antibody
Turning to B2, in assay [2], the binding result is on record as “binds”.

B3: A12 camelid single-chain antibody (VHH)
VHH: B1 VHH with V12A, K52N, T110A
notes: Alpaca VHH, cloned into pMES4 and expressed in E. coli; also called A12 single-chain antibody
On to B3, for which the binding result in assay [2] is on record as “binds”.
